Test results published in paper PMC11047111 (Proceedings of the National Academy of Sciences of the …, 2024).

How the values were obtained:
SEC = target: the molecule itself; assay: SEC
[1] = target: CUL3^NTD (N-terminal domain of cullin 3, residues 1 to 381) (UniProt Q13618 1-381); assay: BLI
Chain of CUL3^NTD (N-terminal domain of cullin 3, residues 1 to 381) (Q13618 1-381): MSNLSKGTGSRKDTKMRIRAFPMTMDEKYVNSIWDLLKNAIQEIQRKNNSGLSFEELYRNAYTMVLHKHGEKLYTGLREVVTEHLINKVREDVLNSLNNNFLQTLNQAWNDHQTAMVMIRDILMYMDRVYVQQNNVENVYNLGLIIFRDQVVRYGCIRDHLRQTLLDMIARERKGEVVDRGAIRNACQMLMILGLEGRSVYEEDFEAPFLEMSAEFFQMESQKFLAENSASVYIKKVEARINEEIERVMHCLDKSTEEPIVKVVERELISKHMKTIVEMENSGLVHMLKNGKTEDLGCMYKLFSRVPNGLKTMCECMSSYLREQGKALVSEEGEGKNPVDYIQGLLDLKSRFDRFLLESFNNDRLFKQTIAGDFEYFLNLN

| binding result [1] | Binder | stoichiometry N (SEC) |
| --- | --- | --- |
|  | KCTD5 (natural protein) MAENHCELLSPARGGIGAGLGGGLCRRCSAGLGALAQRPGSVSKWVRLNVGGTYFLTTRQTLCRDPKSFLYRLCQADPDLDSDKDETGAYLIDRDPTYFGPVLNYLRHGKLVINKDLAEEGVLEEAEFYNITSLIKLVKDKIRERDSKTSQVPVKHVYRVLQCQEEELTQMVSTMSDGWKFEQLVSIGSSYNYGNEDQAEFLCVVSKELHNTPYGTASEPSEKAKILQERGSRM | 5 |
| binds | KCTD5 L161R (natural protein) MAENHCELLSPARGGIGAGLGGGLCRRCSAGLGALAQRPGSVSKWVRLNVGGTYFLTTRQTLCRDPKSFLYRLCQADPDLDSDKDETGAYLIDRDPTYFGPVLNYLRHGKLVINKDLAEEGVLEEAEFYNITSLIKLVKDKIRERDSKTSQVPVKHVYRVRQCQEEELTQMVSTMSDGWKFEQLVSIGSSYNYGNEDQAEFLCVVSKELHNTPYGTASEPSEKAKILQERGSRM |  |
